In the supplement of paper PMC9170038:

Test system: MS2 coat protein
Assay: apparent KD of MS2 coat protein; designed switch direction (-1 OFF switch, 1 ON switch): -1; higher = weaker reporter binding
Method in brief: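 The reported apparent KD is a per-design median over clusters, from curve fits of normalised cluster fluorescence. Protein titrations used SNAP-549-labelled MS2 coat protein, doubled from 0.7 or 1.5 nM to 3 µM, in Tris-HCl pH 7.5 buffer with KCl, MgCl2, BSA, DTT, tRNA and Tween-20, with no input, 200 uM small-molecule ligand, or an oligonucleotide input. The RNA switches were transcribed on Illumina chips by stalled E. coli RNA polymerase.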

[1] = input ligand: microRNA oligo, concentration not stated
[2] = Eterna round: R95, input ligand: microRNA oligo, concentration not stated
[3] = Eterna round: R95, input ligand: FMN 200 uM
[4] = Eterna round: R95, input ligand: none

UUCGUGCUGCUUUGCUGUACGAGUACAUGAGGAUCACCCAUGUAGGAUAUGGACAUGAGGAUCACCCAGAAGGAUAUGUGUUGC [salish99_ExNG3_r04_508] (Eterna round: R96, puzzle: Exclusion NG 3)
apparent KD of MS2 coat protein [1]: 87.5 nM

CACGUACAGCAAGGAUAUCCAAAUGUUGAGCAUGGCCUAUCCAUACAUGAGGAUCACCCAUGUUCGGAGAAGGUGCAUGUAUCU [Enteinte] (Eterna round: R96, puzzle: Exclusion NG 2)
apparent KD of MS2 coat protein (input ligand: FMN 200 uM): 11.2 nM | apparent KD of MS2 coat protein [1]: 9.96 nM | apparent KD of MS2 coat protein (input ligand: none): 12.8 nM

CUAGCGAGUGUAGGAUAUCGGACUGUUUCAGUCUGAGAAGGACAUGAGGAUCACCCAUGUAUUGCUACGUGAGUAGCACGCUAG [JL ENG1 3.00] (Eterna round: R96, puzzle: Exclusion NG 1)
apparent KD of MS2 coat protein (input ligand: FMN 200 uM): 32.9 nM | apparent KD of MS2 coat protein [1]: 17.5 nM | apparent KD of MS2 coat protein (input ligand: none): 19 nM

CAGGUGUUAGGAUAUCGGAGGUUGAGGCAGACGGGAAUAUUCGAGAAGGAACAUGAGGAUCACCCAUGUAGUAG [JR_Exclu4_Sub037] (puzzle: Exclusion 4)
apparent KD of MS2 coat protein [2]: 21.5 nM

UCAUGGUAGCAGGAUAUGCUUGUUUUUUUUUUUGCAGAAGGGCUUACAUGAGGAUCACCCAUGUGAGAGGUCUA [JR_E6_Sub066] (puzzle: Exclusion 6)
apparent KD of MS2 coat protein [2]: 19.9 nM

UACCUGUAGGUAGGAUAUCAUUGCGAUUAGCUAUGAGAAGGACCACAUGAGGAUCACCCAUGUCUACUCAGGAACCGAAAGGUC [Fiskers ExNg1 - 1] (Eterna round: R96, puzzle: Exclusion NG 1)
apparent KD of MS2 coat protein (input ligand: FMN 200 uM): 13 nM | apparent KD of MS2 coat protein [1]: 10.4 nM | apparent KD of MS2 coat protein (input ligand: none): 17.3 nM

UUAACCAGAGGAUAUGCGAAUAAAUAAAACUUUUUUUUUUAACAUGAGGAUCACCCAUGUAGAAGGCUGCAAUU [Ex2 #31] (Eterna round: R97, puzzle: Exclusion 2)
apparent KD of MS2 coat protein (input ligand: FMN 200 uM): 32 nM | apparent KD of MS2 coat protein (input ligand: none): 46.8 nM

UGGCUGCUUAUGGAGUGUGACAUGAGGAUCACCCAUGUGGUAGUAAGGAACAAGCUUUUUACACGUACUUAUAAAGC [JR_SV3TOV1_Sub012] (puzzle: Sensor v3, turn-off variant 1)
apparent KD of MS2 coat protein [3]: 296 nM | apparent KD of MS2 coat protein [2]: 64.3 nM | apparent KD of MS2 coat protein [4]: 438 nM

CGGAUGUGAGGAUAUACAUGAGGAUCACCCAUGUGAGCCAGCUAGCUGACUGGCUCAUGUAGAAGGCACGUCUG [JL-ex3-2.15 Brourd mod] (puzzle: Exclusion 3)
apparent KD of MS2 coat protein [2]: 42.2 nM

GUGAAACAUGAGGAUCACCCAUGUGAGGAUAUGAUUUAGUAAUGGAGACAGUACAUAUUCAGAAGGCACAAUGG [Mat - Mod of JL D76] (puzzle: Exclusion 1)
apparent KD of MS2 coat protein [3]: 55.2 nM | apparent KD of MS2 coat protein [2]: 150 nM | apparent KD of MS2 coat protein [4]: 182 nM

GUGUAGUCAGGAUAUACAUAGGAAGAGAAUAUAAUAUAAGUACAUGAGGAUCACCCAUGUAGAAGGGACAGUGU [Excluse me!! 8 - Jieux - Exclusion 2] (puzzle: Exclusion 2)
apparent KD of MS2 coat protein [2]: 29.4 nM

AGAUUAUGAGGAUAUCGAGUUUAGUACAUGAGGAUCACCCAUGUUAUCCAGGUCUCGUUUCGAGAAGGCAUGAUUC [LRO-Ex5-09] (puzzle: Exclusion 5)
apparent KD of MS2 coat protein [2]: 35.3 nM

UAUAAAACAUAGGAUAUCGAAAUUAUCAUUUAACGAGAAGGAUGAACAUGAGGAUCACCCAUGUGGUAUCAUGG [Mat - Exclusion 6 - JL Mod - D10] (Eterna round: R96, puzzle: Exclusion 6)
apparent KD of MS2 coat protein [1]: 328 nM

GUCAUACAUGAGGAUCACCCAUGUAAGGAUAUGCUAGCGGUCGGCUGACUGACUGCUAGCAGAAGGUACAUGAU (puzzle: Exclusion 1)
apparent KD of MS2 coat protein [2]: 61.5 nM

ACAUGAGGAUCACCCAUGUCUGGCUGGUCUGCUCCGGUUGUUGAGGAUAUAGUUCGGUGUUCGCGCUAGAAGGUGAGGGCUGGA [Aenatbe mod 39] (Eterna round: R96, puzzle: Exclusion NG 3)
apparent KD of MS2 coat protein (input ligand: FMN 200 uM): 260 nM | apparent KD of MS2 coat protein [1]: 139 nM | apparent KD of MS2 coat protein (input ligand: none): 176 nM

GCCGGAGCAGGAUAUUCAAUAUCACACAUGAGGAUCACCCAUGUCCAGCGAAAGCUGGAGGGAGAAGGGCUCUGGC [Fiskers Ex 5 - 15] (puzzle: Exclusion 5)
apparent KD of MS2 coat protein [2]: 56.1 nM

ACCAUGGUUGAAGCUAACAUGAGGAUCACCCAUGUAAGCUGCUAGGAUAUGCAGAGGCCCAGAAAGCAGAAGGAGCAGUACUGC [Diatzagequ] (Eterna round: R96, puzzle: Exclusion NG 3)
apparent KD of MS2 coat protein (input ligand: FMN 200 uM): 14.2 nM | apparent KD of MS2 coat protein [1]: 10.6 nM | apparent KD of MS2 coat protein (input ligand: none): 14.9 nM

UUUUCUUUUGUGAGGAUAUACUUGUUUUUUUUUUUGUAGAAGGCACAUGAGGAUCACCCAUGUACUCUUUCCUG [JR_BME4_Sub024] (puzzle: Brourd's mod of Exclusion 4)
apparent KD of MS2 coat protein [2]: 20.1 nM

UAUUAACAAGCUAGGUCCCACAUGAGGAUCACCCAUGUGCUCGUCUUAUAAGGUACUGUGACGAAAGUCACGGUACC [Sensor 3, v1 - 79] (puzzle: Sensor v3, turn-off variant 1)
apparent KD of MS2 coat protein [3]: 30 nM | apparent KD of MS2 coat protein [2]: 909 nM | apparent KD of MS2 coat protein [4]: 31.5 nM

AGGUCCUUCUGGAGACAUGAGGAUCACCCAUGUCGAGUCAGCGAGGAUAUCGGUAAGACAUGUGAUGAGAAGGCGCAGACCGAU [Ex NG3 #43] (Eterna round: R96, puzzle: Exclusion NG 3)
apparent KD of MS2 coat protein (input ligand: FMN 200 uM): 17.2 nM | apparent KD of MS2 coat protein [1]: 11.9 nM | apparent KD of MS2 coat protein (input ligand: none): 12.7 nM

CUAACAUGCUGGUGAUCAUACAUGAGGAUCACCCAUGUAACAAGCUUUUUGUUCGUCUUAUAAGAUCACCAGCAUGU [Stov1/9-B3] (Eterna round: R97, puzzle: Sensor, turn-off variant 1)
apparent KD of MS2 coat protein (input ligand: FMN 200 uM): 13.8 nM | apparent KD of MS2 coat protein (input ligand: none): 18.2 nM

GCAGUUCGAGUUAGGAUAUGAUUAAAAUUCGGAUAUCAGAAGGAACUUGAGGAUCACCCAAGUAUAGAUGUUGC [JR_BMEx4_Sub059] (Eterna round: R97, puzzle: Brourd's mod of Exclusion 4)
apparent KD of MS2 coat protein (input ligand: FMN 200 uM): 42.1 nM | apparent KD of MS2 coat protein (input ligand: none): 17.1 nM

UUUGAUGUUGAGGAUAUGCUUUUUUUUAUUAUAGCAGAAGGCGAUACAUGAGGAUCACCCAUGUUCAUGGCUUU [JR_E6_Sub098] (puzzle: Exclusion 6)
apparent KD of MS2 coat protein [2]: 14.1 nM

AACCGGCGGACCGAAGCUUUUUGCUUGUUUUAUACUACAACAUGAGGAUCACCCAUGUGGUGGUGGUCCGUUGUAGA [Bitein] (puzzle: Sensor v3, turn-off variant 2)
apparent KD of MS2 coat protein [3]: 47.9 nM | apparent KD of MS2 coat protein [2]: 16.1 nM | apparent KD of MS2 coat protein [4]: 52.9 nM

CUAAAUCAUGUAGGAUAUGCAUAGCGAAGCUAUGCAGAAGGACAUGAGGAUCACCCAUGUUCUUCCGUCUGAGAACAGACGGAA [Mat - Exclusion NG 1 - Mod of JL - D32] (Eterna round: R96, puzzle: Exclusion NG 1)
apparent KD of MS2 coat protein (input ligand: FMN 200 uM): 164 nM | apparent KD of MS2 coat protein [1]: 21.1 nM | apparent KD of MS2 coat protein (input ligand: none): 32.5 nM

AACGCUAAAGGAUAUACAUGAGGAUCACCCAUGUUGAGGAAGGUUAGAUGAGGAGUAAGUAGAAGGUUAGACGA [JR_Exclu3_Sub090] (puzzle: Exclusion 3)
apparent KD of MS2 coat protein [2]: 23.7 nM

UUUAAUUUAAUUAAGAUCACAUGAGGAUCACCCAUGUAUAUAUAGGAUAUCAGCUCGUGUAGAGCUGAGAAGGAUAUAUACAUA [ExNG3/4-A3] (Eterna round: R96, puzzle: Exclusion NG 3)
apparent KD of MS2 coat protein (input ligand: FMN 200 uM): 46 nM | apparent KD of MS2 coat protein [1]: 35.9 nM | apparent KD of MS2 coat protein (input ligand: none): 101 nM

GGUUGGCGAGGAUAUACAUGAGGAUCACCCAUGUGGUCCUAAGGCUGAUCAAGCCUAUGUAGAAGGCGCAAAUC [salish99_ex3_r4_010] (Eterna round: R97, puzzle: Exclusion 3)
apparent KD of MS2 coat protein (input ligand: FMN 200 uM): 37.7 nM | apparent KD of MS2 coat protein (input ligand: none): 223 nM

UGUUGUUACGUAGGAUAUCCACCAACAGGUGGAAGGAUAUGUACGCAGAAGGUUCGCCAACAGGCGGAGAAGGACGGGUUAACA [pwkr exNG2 2xF7 2xFMN.27] (Eterna round: R96, puzzle: Exclusion NG 2)
apparent KD of MS2 coat protein (input ligand: FMN 200 uM): 1370 nM | apparent KD of MS2 coat protein [1]: 473 nM | apparent KD of MS2 coat protein (input ligand: none): 300 nM

UCUCGCGGGCAAGGAUAUCCUACGUUGUUCUGGCCCGUGUAUGUUACAUGAGGAUCACCCAUGUGGGAGAAGGUGCACCAGGGC [Design 39] (Eterna round: R96, puzzle: Exclusion NG 2)
apparent KD of MS2 coat protein (input ligand: FMN 200 uM): 72.8 nM | apparent KD of MS2 coat protein [1]: 43.8 nM | apparent KD of MS2 coat protein (input ligand: none): 77.4 nM

UACAUGAGGAUCACCCAUGUUUUGUCGUGUAUGGUAAUAAUCUAGGAUAUCAAUUUAUUUAUUUAUGAGAAGGAGAAUAAUAAA [JMF's solution 4] (Eterna round: R96, puzzle: Exclusion NG 3)
apparent KD of MS2 coat protein (input ligand: FMN 200 uM): 67.1 nM | apparent KD of MS2 coat protein [1]: 55.9 nM | apparent KD of MS2 coat protein (input ligand: none): 61.7 nM

AUAAUACAUGUAGGAUAUGCGUGGCGAAGCUAUGCAGAAGGACAUGAGGAUCACCCAUGUCUUAGCGUCUGCGUACAGAUGCUA [JL eng1 1.35 mod 2] (Eterna round: R96, puzzle: Exclusion NG 1)
apparent KD of MS2 coat protein (input ligand: FMN 200 uM): 27.9 nM | apparent KD of MS2 coat protein [1]: 12.1 nM | apparent KD of MS2 coat protein (input ligand: none): 16.4 nM

CGUAUCUUUCACGUGAGUAGUGGGUGCAACAGGUGGGUUACAUGAGGAUCACCCAUGUACUCACUUGCUCGUCUUAU [Grok-var2-06] (puzzle: Sensor v3, turn-off variant 2)
apparent KD of MS2 coat protein [3]: 38 nM | apparent KD of MS2 coat protein [2]: 23.4 nM | apparent KD of MS2 coat protein [4]: 34.3 nM

UUAAUUAAUUAAUUAGAUCCUCACAUGAGGAUCACCCAUGUGCAGGAUAUCAGCUCGAUUAGAGCUGAGAAGGGCACUAUUAAU [ExNG3/10-B4] (Eterna round: R96, puzzle: Exclusion NG 3)
apparent KD of MS2 coat protein (input ligand: FMN 200 uM): 56.1 nM | apparent KD of MS2 coat protein [1]: 85 nM | apparent KD of MS2 coat protein (input ligand: none): 127 nM

AUAAUGUCAGGAUAUCAGUCGACUAGCGAUAGCUAGUCGACUGAGAAGGGACAUGAGGAUCACCCAUGUGUUUC [E4/14-A4] (Eterna round: R97, puzzle: Exclusion 4)
apparent KD of MS2 coat protein (input ligand: FMN 200 uM): 2.73 nM | apparent KD of MS2 coat protein (input ligand: none): 170 nM
